Data from the nanobody polyreactivity screen of Harvey et al. (2022).

Test: yeast display, Sf9 membrane polyspecificity reagent, FACS + sequencing; frameworks hold sequencing errors
Outline: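 Galactose induction of a Saccharomyces cerevisiae BJ5465 synthetic nanobody display library ran 36–48 hours. The cells were then stained for 1 hour at 4 °C with 10% biotinylated, detergent-solubilized Sf9 membrane reagent, pulled down on streptavidin microbeads and FACS-sorted into low and high (top ~1%) gates on expression and reagent-binding fluorescence. Labels for polyreactivity follow the gate of origin.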

Row | Sequence | polyreactivity (PSR sort gate)
1 | QVQLVESGGGLVQAGGSLRLSCAASGRIFGYYAMGWYRQAPGKERELVATITFGGGSTYYADSVKGRFTISRDNAKNTVYLQMNSLIPEDSAVYYCAADSGYLGIYGDEYSWGQGTQVTVSS | low polyreactivity
2 | QVQLVESGGGLVQAGGSLRLSCAASGSTFVGYAMGWYRQAPGKERELVAAISRTGASTYYADSVKGRFTISRDNAKNTVYLQMNSLKPADTAVYYCAYYYSIYDYWGQGTQVTVSS | high polyreactivity
3 | QVQLVESGGGLVQAGGSLRLSCAASGRIFVVNDMGWYRQAPGKERELVAAMNSGGRTNYADSVKGRFTISRDNAKNTVYLQMPSLKPEDTAVYYCNAKRTGPWFLHVPVYYWGQGTQVTVSS | low polyreactivity
4 | QVQLVESGGGLVQAGGSLRLSCAASGFIFPFYAMGWYRQAPGKERELVAGIRGVGSTNYADSVKGRFTISRDNAKNTVYLQMNSLKPEDTAVYYCNKELYDFKDRNLTAFLLRIFDSWGQGTQVTVSS | low polyreactivity
5 | QVQLVESGGGLVQAGGSLRLSCAASGRNIVGYAMGWYIQAPGKERELVAAITKSGGRTYYADSVKGRFTISRDNAKNTVYLQMNSLKPEDTAVYYCAVLNSKWNEYDYWGQGTQVTVSS | high polyreactivity
6 | QVQLVESGGGLVQAGGSHRLSCAASGLTFSKYAMGWYRQAPGKERELVAAIRRSGGSTYYADSVKGRFTISRDNAKNTVYLQMNSLKPEDTAVYYCAADNYRYWNILRDYWGQGTQVTVSS | low polyreactivity
7 | QVQLVESGGGLLQAGGSLRLSCAASGGIIYYNAMGWSRQAPGKERELVAAIRYRGGSTYYADSVKGRFTISRDNEKNTVYLQMNSLKPEYTAVYYCAVDNLRRGLSLYDTLDYWGQGTQVTVSS | low polyreactivity
8 | QVQLVESGGGLVQAGGSLRLSCAASGSIFNSNAMGWSRQAPGKERELVAVISWSDGSTRYADSVKGRFTISRDNAKNTVYLQMNSLKPEDTAVYYCNADLVYYYRQEVDYWGQGTQVTVSS | low polyreactivity
9 | QVKLVESGAGLVQAGGSLRLSCAASALSFYYYAMGWYRQAPGKERELVASITGGDSTNYADSVKGRFTISRDNAKNTVYLQMNSLKPEETAVYYCADEFYVSSYGYRTYDYYYWGQGTQVTVSS | low polyreactivity
10 | QVQLVESGGGLVQAGGSLRLSCAASGSIVPYNVMGWYRQAPGKERELVAAITRRGGSTYYADSVKGRFTISRDNAKNTVYLQMNSLKPEDSAVYYCAAVPYPRGKGYDYWGQGTQVTVSS | high polyreactivity
11 | QVQLVESGGGLVQAGGSLRLSCAASGRTFRAYTMGWYRQAPGKERELVAAISTPGGSTYYADSVKGRFTISRDNAKNTVYLQMNSLKPEDTAVYYCAADRYYWGQGTQVTVSS | low polyreactivity
12 | QVQLVESGGGLVQAGGSLRLSCAASGSTFYPYAMGWYRQAPGKERELVAAIDRGGSTSYADSVKGRFTISRDNAKNTVYLQMNSLKPEDTAVYYCAVARGGRRKYEYWGQGTQVTVSS | low polyreactivity
13 | QVQLVESGGGIVHAGGSLRLSCAASGSTFDSYARGWYRQAPGKERELVAAITDSGSSTYYADSVKGRFTISRDNAKNTVYLQMNSLKPEDSAVYYCANYDYHGWSYYRYDYWGQGTQVTVSS | low polyreactivity
14 | QVQLVESGGGLVQAGGSLRLSCAASGFIFGGNVMGWYRQAPGKEREFVAAITDGDGSTYYADSVKGRFTISRDNAKNTVYLQMNSLKPEDTAVYYCAADVYYADVYPVEYWGQGTQVTVSS | high polyreactivity
15 | QVQLVESGGGLVQAGGSLRLSCAASGFTLYRNAMGWYRQAPGKERELVAAITSSGGGTYYADSVKGRFTISRDNAKNTVYLQMNSLKPEDTAVYYCAARSTSDREGNYWGQGTQVTVSS | low polyreactivity
16 | QVQLVESGGGLVQAGGSLRLSCAASGITFWWYAMGWYRQAPGKERELVAAITGGGSTNYADSVKGRFTISRDNAKNTVYLQMNSLKPEDTAVYYCAATGSPARNWDTVTGYYYWGQGTQVTVSS | low polyreactivity
17 | QVQLQESGGGLVQAGGSLRLSCAASGYISQSSVMGWYRQAPGKERDFVASISYGATTYYADSVKGRFTISRDNAKNTVYLQTNSPKPEDTAVYYCAVGVKRGFSHRYWGQGTQVTVSS | high polyreactivity
18 | QVQLVESGGGLVQAGGRLRLSCAASGRIFNKYVMGWYRQAPGKERELVAAISGRGGSTYYADSVKGRFTISRDYEKNTVYLQMNSLKPEDSAVYYCAAEYQGRRMYYWGQGTQVTVSS | high polyreactivity
19 | QVQLVESGGGLVQAGGSLRLSCAASGRTIYFNVMGWYRQAPGKERELVAAISGGGSTNYADSVKGRYTISRDNAKNTVYLQMNSLKPEDTAVYYCATGYYSGLIDDYWGQGTQVTVSS | low polyreactivity
20 | QVQLVESGGALVQAGGSLRLSCAASGSIFDDNAMGWYRQAPGKERELVAAITGSGGRTYYADSVKGRFTISRDNAQNTVDLQMNSLKPEDTAVYYCAAQGAYNYFNAWYGYEYWGQGTQVTVSS | high polyreactivity
21 | QVQLVESGGGLVQAGGSLRLSCAASGRTFGHYAMGWYRQAPGKERELVAAITYSGGSTYADSVKGRFTISRDNAKNTVYLQMNSLKPEDTAVYYCNKRQKGYTRSYRYIVWYDYWGQGTQVTVSS | high polyreactivity
22 | QVQLVESGGGLVQARGSLRLSCAASGRIFRKYDMGWYRQAPGKERELVAAISGTGITYYADSVKGRFTISRDNAKNTVYLQMNSMKPEDTAVYYCARGSKPRAWSWAYPSDTSIYDYWGQGTQVTVSS | low polyreactivity

Row | Sequence | polyreactivity (PSR sort gate)
23 | QVQLVESGGGLVQAGGSLRLSCAAYGSTFWVYAMVWYRQAPGKERELVAAIDYSGGSTYYADSVKGRFTISRDNAKNNVYLQMNSLKPEDTAVYYCAAGEGQYWLWDGEGEYDYWGQGTQVTVSS | low polyreactivity
24 | QVQLVESGGGLVQAGGSLRLSCAASGFIFVRYTMGWYRQAPGKERELVAAISRSSDSTYYADSVKGRFSISRDNAKNTVYLQMNSLKPEVTAVYYCAAFSGFSPFRFYYWGQGTQVTVSS | high polyreactivity
25 | QVQLVESGGGLVQAGGSLRLSCAASGSIFSWYAMGWYRQAPGKERELVAAISSRGGSTYYADSVKGRFTISRDNAKNTVYLQMNSLKPEDTAVYYCNTTYGYSTYWASGKYDYWGQGTQVTVSS | low polyreactivity
26 | QVQLVESGGGLVQAGGSLRLSCAASGFIFGYNGMGGYRQAPGKERELVAGITYSDGSTYYADSVKGRFTISRDNAKNTVYLQMNSLKPEDTAVYYCAVDVIYYWAEDYDYWGQGTQVTVSS | low polyreactivity
27 | QVQLVESGGGLVQAGGSLRLSCAASGSIFVRNGMGWYRQAPGKERELVASITSGTITYYADSVKGRFTISRDNAKNTVYLQINSLKPEDTAVYYCNAGCRSSRFKRPYFRERNYWGQGTQVTVSS | high polyreactivity
28 | QVQLVESGGGLVQAGGSLRLSCAASGSTFTYYAMGWYRQAPGKERELVAAITGSDGRTYYADSVKGRFTISRDNAKNTVYLQMNSLKPEDTAVYYCAAYFTRYDFRWHTYYYWGQGTQVTVSS | low polyreactivity
29 | QVQLVESGGGLVQAGGSLRLSCAASGSTFESNAMRWYRQAPGKERELVAAISRGGNTYYADSVKGLFTISRDNAKYTVYLQMHSLKPEDTAVYYCNVDRGNPVPPSEYWGQGTKVTVSS | low polyreactivity
30 | QFQLVESGGGLVQAGGSLRLSCAASGRIFKPNAMGWYRQAPGKERELVAAIRYSTGRTYYADSVKGRFTISRDNAKNTVYLQMNSLKPEDTAVYYCAARRVEYYGSQNGYWGQGTQVTVSS | high polyreactivity
31 | QVQLVESGGALVQAGGSLRLSCAASGRIFRGYAMGWYRQAPGKERELVAAISSRGSRTYYADSVKGPFTISRDNAKNTVYLQMNSLKPEDTAVYYCAADVPGVTTSYAPYDSEYWGQGSQVTVSS | high polyreactivity
32 | QVQLVESGGGLVQAGGSLRLSCAASGYNFAYYAMGWYRQAPGTERELVAAISWSGSSTYYADSVKGRFTISRDNAKNTVYLQMNSLKPEDTAVYYCAKGYTSYNLGKYGYCGQGTQVTVSS | low polyreactivity
33 | QVQLVESGGGLVQAGGSLRLSCAASGSIFRYYAMGWYRQAPGKERELVAAISSGDSTNYADSVKGRFTISRDNAKNTVYLQMNSLKPEDTAVYYCAAGVVRGPGYYRKYYYWGQGTQVTVSS | high polyreactivity
34 | QVQLVESGGGLVQAGGSLRLSCAASGIIFGRYAMGWYRQAPGKERELVAAISARGGSTYYADSVKGRFTISRDNAKNTVYLHMNSLKPEDTAVYYCAARAVYTQKRYDSWGQGTQVTVSS | high polyreactivity
35 | QVQLVESGGGLVQAGGSLRLSCAASGRIFYPYAMGWYRQAPGKERELVAAIRRSGVDTYYADSVKGRFTISRDNAKNTVYLQMNSLIPEDTAVYSCAADPYWFFPHYDSWGQGTQVTVSS | low polyreactivity
36 | QVQLVESGGGLVQAGGSLRLSCAASGSIFKTNARGLYRQAPGTEREFVAAISWSGGSTYADSVKGRFTISRDTAKNTVYLQMNSLKPEDTAVYYCAAVDYYYYGVYSSWYDYWGQGTQVTVSS | low polyreactivity
37 | QVQHVESGGGLVQAGGSLRLSCAASGIIFTTYAMGWYRQAPGKERELVAAISRSGSTYYADSVKGRFTISRDNAKNTVYLQMNSLKPEDTAVYYCASGRWRWRGYDYYWGQGSQVTVSS | high polyreactivity
38 | QVQLVESGGGLVQAGGSLRLSCAASGRIFARYVMGWYRQAPGKERELVAAISPSGSRTYYADSVKGRFTISRDNAKNTVYLQMNSLKPEDTAVYYCAATGVYTKNPRGMDYWGQGTQVTVSS | high polyreactivity
39 | QVQLVESGGGLVQAGGRLRLSCAASGNTLRYYAMGWYRQAPGKERELVAAISESGGRTYYADSVKGRFTISRDNAKNTVYLQMNSLKPEDTAVYYCAASRWGGTWWYGYNYWGQGTQVTVSS | high polyreactivity
40 | QVQLVESGGGLVQARGSLRLSCAASVITFRHNTMGWYRQAPGKERELVSTNYADSVKGRFTISRDNAKNTVYLQMNSLKQEDTAVYYCNADGTFEYDYWGQGTQVTVSS | low polyreactivity
41 | QVQLVESGGGLVQAGGSLRLSCAASGLTFTSNVMGWYRQAPGKERELVAAISSGGSTYYADSVKGRFTISRDNAKNTVYLQMNSLKPEDTAVYYCNTKLWGQYDYWGQGTQVTVSS | low polyreactivity
42 | QVQLVESGGGLVQAGGSLRLSCAASGRIFYRYVMGWYRQAPGKERELVAAITSSGGSTYYADSVKGRFTISRDNAKNTVYLQMNSLNPEDTAVYYCAADRYTRYRYNYWGQGTQVTVSS | high polyreactivity
43 | KVQLVESGAGLVQAGGSLRLSCAASGITFVRYVMGWYRQAPGKERELVAAISNSGGRTYYADSVKGRFTISRDNAKNTVYLQMNSLKPEDTAVYYCARRAGSYPYGYTGYDYWGQGTLVTVSS | high polyreactivity
